The text below walks through data of US12180485B2, “Repressible control of gene expression” (TRUSTEES OF BOSTON UNIVERSITY, priority 2020, dated 2024).

For one assay, the system named is mCherry. As to the kind of experiment: Split Cas13 (559/560) or WTCas13 driven by inducible promoters (NFkB, CAGA12, AP1), mCherry knockdown. The class given is cell-based. The note with it: NFkB promoter with TGFbeta; CAGA12 promoter with TNFalpha; AP1 promoter with PMA. The source says:
FIG. 13A-13E is a series of schematics and graphs showing the coupling of split Cas13 (559/560) expression to inducible promoters responsive to endogenous signals. Inducible promoters responsive to endogenous signals drove split Cas13 expression for the construction of AND logic gate. FIG. 13A is a schematic showing the transfection compositions of endogenous signal-responsive promoters (e.g., “short response elements” and “miniP”) driving split Cas13d's. […] FIG. 13E is a series of bar graphs showing that orthogonality among the 3 inducible promoters tested. In FIG. 13B-13D, the left-right order of the bars for each design is the same as the top-down order of the legend for each bar graph, and “NT-gRNA” is non-target gRNA. In FIG. 13E, the left-right order of the bars is the same as the top-down order of the legend for each bar graph.

The next assay relates to NFkB promoter. As to the kind of experiment: Orthogonality of inducible promoters driving fluorescent proteins. Format: cell-based. The note with it: PMA is the inducer for AP1 promoter. The source says:
Although the propensity of many Cas13 splits to reconstitute spontaneously has led to leaky knockdown activity when coupled with CID systems, transcriptional control of such splits creates an AND gate logic. Inducible promoters (IP) such as WNT, NFkB, CAGA12, and AP1 promoters are available to orthogonally drive split Cas13 expression. In such design, there can only be target knockdown activity when there is input for both promoters. After verification for the ability of these promoters to inducibly drive gene expression using fluorescent proteins (see e.g., FIG. 13E), experiments were conducted with split RfxCas13d pieces and WT RfxCas13d. The chosen split was 559/560 as this split pair is able to achieve target knockdown efficiency more than 80%, and its knockdown ability surpasses that of WT RfxCas13d when coupled with the GIB CID system. Inducible promoter driving the WT Cas13 serves as the positive control (see e.g., FIG. 13A middle panel; see e.g., setting 3 in FIG. 13B, corresponding to “IP-WT” in FIG. 13B-13D). The highest inducibility among the 3 IPs was 30% inducibility with the promoter CAGA12. […] As such, the aforementioned constructs (e.g., split recombinase and IPs) can be integrated into AAVS1 sites and their performance evaluated.

The target in the next assay is NS3a-genotype 1b (Hepatitis C virus genotype 1b, UniProt P26663, A1092G/F1173S/K1113A/P1112Q). The note with it: disrupted by NS3a-targeting drugs; read-out: affinity of basal complex with NS3a-genotype 1b; cited from earlier work.
For assay [1] the following is noted: read-out: affinity (Kd); cited from earlier work.
A further assay addresses NS3a/danoprevir complex (Hepatitis C virus genotype 1a, UniProt P27958, T1100M/T1173A). The note with it: cited from earlier work.
For another assay, the target named is apo NS3a (Hepatitis C virus genotype 1a, UniProt P27958, T1100M/T1173A). The note with it: cited from earlier work.
The test system of assay [2] is luciferase and endogenous transcripts. The note with it: cited from earlier work.
Assay [3] has as its system mCherry expression in HEK 293 FT cells. As to the kind of experiment: Cas13d/gRNA mCherry knockdown, transient transfection, flow cytometry. The class given is cell-based. The note with it: mCherry expression at various levels. The source says:
FIG. 4A-4D is a series of schematics and graphs showing that Cas13d achieved robust transgene knockdown in HEK 293 FT cells. FIG. 4A is a schematic showing the necessary components for the CRISPR/Cas13d system. […] Minimizing either one component led to the abolishment of knockdown ability.
In order to gain better understanding of the activity of the Cas13 effector/gRNA system, it was first examined how variation in the expression of each components (e.g., target, guide, and/or effector protein) relate to the knockdown efficiency of the system. HEK 293 FT cells were transiently transfected with the components of the system, and expression of the targeted gene, mCherry, was tested using flow cytometry. […] Another important feature of Cas13d is its ability to process pre-mature gRNA arrays and achieve multiplexed gene targeting. To verify this, pre-gRNAs with spacer regions flanked by 2 direct repeat sequences were transfected with Cas13d into HEK 293 FT cells. Target gene knockdown was later quantified and compared to that by mature gRNAs.
In general terms: Flow cytometry measures light scatter and fluorescence of single cells or particles in a stream.

Assay [4] relates to bystander fluorescent proteins (GFP, BFP, iRFP). Briefly: Collateral cleavage of bystander fluorescent proteins by Cas13d during mCherry on-target knockdown. Format: cell-based. The source says: FIG. 5A-5C is a series of schematics and graphs showing collateral activity of Cas13d. […] As the plasmid dosage of the bystander fluorescent protein decreased, bystander expression was knocked down at a higher level.
The green fluorescent protein (GFP) was used initially as a transfection marker and as a non-targeted gene expression control. […] GFP was knocked down by Cas13d only when mCherry was present, confirming that this is a collateral activity instead of a result from non-specific gRNA design.

Assay [5] relates to mCherry reporter and endogenous transcripts in HEK293T cells. The note with it: cited from earlier work.

“Also recorded” adds a separate entry of the source.

Regarding `CCCCCCCCCCCCCC(=O)O[C@@H]1[C@@H](C)[C@@]2(O)[C@@H](C=C(CO)C[C@]3(O)C(=O)C(C)=C[C@@H]23)[C@@H]2C(C)(C)[C@]12OC(C)=O` [PMA, reference compound], the “mCherry knockdown by split Cas13d or WTCas13 expressed from inducible promoter” value with mCherry was “induced mCherry knockdown”. Moreover, the “activation of NFkB inducible promoter” value with NFkB promoter is “turned on”.

For the molecule GELDELVYLLDGPGYDPIHSD [ANR], the Kd on NS3a-genotype 1b is 10 nM.

B1: aCaffVHH: VHH camelid antibody that specifically binds to caffeine, SEQ ID NO: 1980 (protein)
VHH: EVQLQASGGGLVQAGGSLRLSCTASGRTGTIYSMAWFRQAPGKEREFLATVGWSSGITYYMDSVKGRFTISRDNAKNSAYLQMNSLKPEDTAVYYCTATRAYSVGYDYWGQGTQVTVSH
Turning to B1, in assay [1], the Kd was 500 nM.

B2: DNCR2: danoprevir/NS3 complex reader, SEQ ID NO: 163 (protein)
chain: SSDEEEARELIERAKEAAERAQEAAERTGDPRVRELARELKRLAQEAAEEVKRDPSSSDVNEALKLIVEAIEAAVDALEAAERTGDPEVRELARELVRLAVEAAEEVQRNPSSSDVNEALHSIVYAIEAAIFALEAAERTGDPEVRELARELVRLAVEAAEEVQRNPSSRNVEHALMRIVLAIYLAEENLREAEESGDPEKREKARERVREAVERAEEVQRDPSGWLNH
On to B2, for which the “selectivity over NS3a bound to the drugs grazoprevir or asunaprevir” value with NS3a/danoprevir complex is > 20,000 fold. The “binding to free danoprevir” value with NS3a/danoprevir complex (free danoprevir, no NS3a) is recorded as “does not bind substantially”. Besides, the Kd in the assay with NS3a/danoprevir complex (read-out: affinity for the NS3a/danoprevir complex) is 0.036 nM. Moreover, the “binding to apo NS3a” value in the assay with apo NS3a is on record as “no detectable binding”.

B3: LwaCas13b: Leptotrichia wadei Cas13a, SEQ ID NO: 2 (protein, listed as Leptotrichia wadei)
chain: MKVTKVDGISHKKYIEEGKLVKSTSEENRTSERLSELLSIRLDIYIKNPDNASEEENRIRRENLKKFFSNKVLHLKDSVLYLKNRKEKNAVQDKNYSEEDISEYDLKNKNSFSVLKKILLNEDVNSEELEIFRKDVEAKLNKINSLKYSFEENKANYQKINENNVEKVGGKSKRNIIYDYYRESAKRNDYINNVQEAFDKLYKKEDIEKLFFLIENSKKHEKYKIREYYHKIIGRKNDKENFAKIIYEEIQNVNNIKELIEKIPDMSELKKSQVFYKYYLDKEELNDKNIKYAFCHFVEIEMSQLLKNYVYKRLSNISNDKIKRIFEYQNLKKLIENKLLNKLDTYVRNCGKYNYYLQVGEIATSDFIARNRQNEAFLRNIIGVSSVAYFSLRNILETENENGITGRMRGKTVKNNKGEEKYVSGEVDKIYNENKQNEVKENLKMFYSYDFNMDNKNEIEDFFANIDEAISSIRHGIVHFNLELEGKDIFAFKNIAPSEISKKMFQNEINEKKLKLKIFKQLNSANVFNYYEKDVIIKYLKNTKFNFVNKNIPFVPSFTKLYNKIEDLRNTLKFFWSVPKDKEEKDAQIYLLKNIYYGEFLNKFVKNSKVFFKITNEVIKINKQRNQKTGHYKYQKFENIEKTVPVEYLAIIQSREMINNQDKEEKNTYIDFIQQIFLKGFIDYLNKNNLKYIESNNNNDNNDIFSKIKIKKDNKEKYDKILKNYEKHNRNKEIPHEINEFVREIKLGKILKYTENLNMFYLILKLLNHKELTNLKGSLEKYQSANKEETFSDELELINLLNLDNNRVTEDFELEANEIGKFLDFNENKIKDRKELKKFDTNKIYFDGENIIKHRAFYNIKKYGMLNLLEKIADKAKYKISLKELKEYSNKKNEIEKNYTMQQNLHRKYARPKKDEKFNDEDYKEYEKAIGNIQKYTHLKNKVEFNELNLLQGLLLKILHRLVGYTSIWERDLRFRLKGEFPENHYIEEIFNFDNSKNVKYKSGQIVEKYINFYKELYKDNVEKRSIYSDKKVKKLKQEKKDLYIRNYIAHFNYIPHAEISLLEVLENLRKLLSYDRKLKNAIMKSIVDILKEYGFVATFKIGADKKIEIQTLESEKIVHLKNLKKKKLMTDRNSEELCELVKVMFEYKALE
As to B3, the knockdown efficiency in [2] was 50%.

B4: Cas13d: type VI-D CRISPR-associated RNA-guided ribonuclease Cas13d Ruminococcus flavefaciens, SEQ ID NO: 1 (protein, listed as Ruminococcus flavefaciens)
chain: IEKKKSFAKGMGVKSTLVSGSKVYMTTFAEGSDARLEKIVEGDSIRSVNEGEAFSAEMADKNAGYKIGNAKFSHPKGYAVVANNPLYTGPVQQDMLGLKETLEKRYFGESADGNDNICIQVIHNILDIEKILAEYITNAAYAVNNISGLDKDIIGFGKFSTVYTYDEFKDPEHHRAAFNNNDKLINAIKAQYDEFDNFLDNPRLGYFGQAFFSKEGRNYIINYGNECYDILALLSGLRHWVVHNNEEESRISRTWLYNLDKNLDNEYISTLNYLYDRITNELTNSFSKNSAANVNYIAETLGINPAEFAEQYFRFSIMKEQKNLGFNITKLREVMLDRKDMSEIRKNHKVFDSIRTKVYTMMDFVIYRYYIEEDAKVAAANKSLPDNEKSLSEKDIFVINLRGSFNDDQKDALYYDEANRIWRKLENIMHNIKEFRGNKTREYKKKDAPRLPRILPAGRDVSAFSKLMYALTMFLDGKEINDLLTTLINKFDNIQSFLKVMPLIGVNAKFVEEYAFFKDSAKIADELRLIKSFARMGEPIADARRAMYIDAIRILGTNLSYDELKALADTFSLDENGNKLKKGKHGMRNFIINNVISNKRFHYLIRYGDPAHLHEIAKNEAVVKFVLGRIADIQKKQGQNGKNQIDRYYETCIGKDKGKSVSEKVDALTKIITGMNYDQFDKKRSVIEDTGRENAEREKFKKIISLYLTVIYHILKNIVNINARYVIGFHCVERDAQLYKEKGYDINLKKLEEKGFSSVTKLCAGIDETAPDKRKDVEKEMAERAKESIDSLESANPKLYANYIKYSDEKKAEEFTRQINREKAKTALNAYLRNTKWNVIIREDLLRIDNKTCTLFRNKAVHLEVARYVHAYINDIAEVNSYFQLYHYIMQRIIMNERYEKSSGKVSEYFDAVNDEKKYNDRLLKLLCVPFGYCIPRFKNLSIEALFDRNEAAKFDKEKKKVSGNS
In the case of B4, the mCherry knockdown efficiency result in assay [3] is given as “around 80%”. Further, the “effect on bystander iRFP expression” value in assay [4] (mCherry on-target knockdown by Cas13d) is “least disturbed; also recorded: minimally affected”. Moreover, the “effect on bystander BFP expression” value in assay [4] (mCherry targeting Cas13d system) is reported as “strongly affected”. Besides, the “effect on bystander GFP expression” value in assay [4] (mCherry targeting Cas13d system, mCherry present) is “knocked down along with mCherry”. Further, the knockdown efficiency in assay [5] (HEK293T cells, mCherry reporter and endogenous transcripts) is 80-95%. In assay [5] (mammalian cells), the “knockdown of mCherry and endogenous gene expression” value was 85-90%.
